Results reported in PMC2733745 (The Journal of Cell Biology, 2009).

Legend:
[1] = biological target: FN7–10 (fibronectin type III domains 7–10) (human, UniProt P02751-1 1173-1540); assay: SEC
1TM-αVβ3 = 1TM-αVβ3 (human, UniProt P06756;P05106); assay: SEC
[2] = biological target: full-length WT αVβ3 stably expressed on K562 cells (human, UniProt P06756;P05106); assay: flow cytometry on cells

stoichiometry N [1]	binding result (1TM-αVβ3)	binding result [2]	Binder
~1 integrin/FN molar ratio	–	–	1TM-αVβ3 (complex) chain 1: FNLDVDSPAEYSGPEGSYFGFAVDFFVPSASSRMFLLVGAPKANTTQPGIVEGGQVLKCDWSSTRRCQPIEFDATGNRDYAKDDPLEFKSHQWFGASVRSKQDKILACAPLYHWRTEMKQEREPVGTCFLQDGTKTVEYAPCRSQDIDADGQGFCQGGFSIDFTKADRVLLGGPGSFYWQGQLISDQVAEIVSKYDPNVYSIKYNNQLATRTAQAIFDDSYLGYSVAVGDFNGDGIDDFVSGVPRAARTLGMVYIYDGKNMSSLYNFTGEQMAAYFGFSVAATDINGDDYADVFIGAPLFMDRGSDGKLQEVGQVSVSLQRASGDFQTTKLNGFEVFARFGSAIAPLGDLDQDGFNDIAIAAPYGGEDKKGIVYIFNGRSTGLNAVPSQILEGQWAARSMPPSFGYSMKGATDIDKNGYPDLIVGAFGVDRAILYRARPVITVNAGLEVYPSILNQDNKTCSLPGTALKVSCFNVRFCLKADGKGVLPRKLNFQVELLLDKLKQKGAIRRALFLYSRSPSHSKNMTISRGGLMQCEELIAYLRDESEFRDKLTPITIFMEYRLDYRTAADTTGLQPILNQFTPANISRQAHILLDCGEDNVCKPKLEVSVDSDQKKIYIGDDNPLTLIVKAQNQGEGAYEAELIVSIPLQADFIGVVRNNEALARLSCAFKTENQTRQVVCDLGNPMKAGTQLLAGLRFSVHQQSEMDTSVKFDLQIQSSNLFDKVSPVVSHKVDLAVLAAVEIRGVSSPDHVFLPIPNWEHKENPETEEDVGPVVQHIYELRNNGPSSFSKAMLHLQWPYKYNNNTLLYILHYDIDGPMNCTSDMEINPLRIKISSLQTTEKNDTVAGQGERDHLITKRDLALSEGDIHTLGCGVAQCLKIVCQVGRLDRGKSAILYVKSLLWTETFMNKENQNHSYSLKSSASFNVIEFPYKNLPIEDITNSTLVTTNVTWGIQPAPMPVPVWVI chain 2: GPNICTTRGVSSCQQCLAVSPMCAWCSDEALPLGSPRCDLKENLLKDNCAPESIEFPVSEARVLEDRPLSDKGSGDSSQVTQVSPQRIALRLRPDDSKNFSIQVRQVEDYPVDIYYLMDLSYSMKDDLWSIQNLGTKLATQMRKLTSNLRIGFGAFVDKPVSPYMYISPPEALENPCYDMKTTCLPMFGYKHVLTLTDQVTRFNEEVKKQSVSRNRDAPEGGFDAIMQATVCDEKIGWRNDASHLLVFTTDAKTHIALDGRLAGIVQPNDGQCHVGSDNHYSASTTMDYPSLGLMTEKLSQKNINLIFAVTENVVNLYQNYSELIPGTTVGVLSMDSSNVLQLIVDAYGKIRSKVELEVRDLPEELSLSFNATCLNNEVIPGLKSCMGLKIGDTVSFSIEAKVRGCPQEKEKSFTIKPVGFKDSLIVQVTFDCDCACQAQAEPNSHRCNNGNGTFECGVCRCGPGWLGSQCECSEEDYRPSQQDECSPREGQPVCSQRGECLCGQCVCHSSDFGKITGKYCECDDFSCVRYKGEMCSGHGQCSCGDCLCDSDWTGYYCNCTTRTDTCMSSNGLLCSGRGKCECGSCVCIQPGSYGDTCEKCPTCPDACTFKKECVECKKFDRGALHDENTCNRYCRDEIESVKELKDTGKDAVNCTYKNEDDCVVRFQYYEDSSGKSILYVVEEPECPKGPDILVV
–	binds	binds	Fab fragment of the anti–αV propeller mAb 17E6 (Fab, V domains shown) VH: QVQLQQSGAELAEPGASVKMSCKASGYTFSSFWMHWVKQRPGQGLEWIGYINPRSGYTECNEIFRDKATMTADTSSSTAYMQLSGLTSEDSAVYYCASFLGRGAMDYWGQGTSVTVSS VL: DIQMTQTTSSLSASLGDRVIISCRASQDISNYLSWYQQKPDGTVKLLIFYTSKLHSGVPSRFSGSGSGTDYSLTISNLDQEDIATYFCQQGNTFPYTFGGGTKVEMR
